These results are taken from publication PMC2592692.

Residue numbers refer to the chain shown, from its start. In names and notes the source's numbering stands.

The target in assay [1] is microtubules (purified tubulin, polymerised in buffer). Description: TIRF of Eg5-GFP on immobilised GMPCPP microtubules. To be noted: reference: wild-type Eg5-GFP, Cdk1-treated; sites T937.
In assay [2] the target is Alexa-568 labeled microtubules (paclitaxel-stabilised) (UniProt P02550).
Assay [3] has as its target spindle microtubules in Xenopus egg extract (Xenopus laevis (endogenous in egg extract)). Description: fluorescence microscopy of fixed spindles (GFP intensity per TAMRA-tubulin intensity); endogenous Eg5 immunodepleted from Xenopus egg extract and replaced by recombinant Eg5-GFP constructs; spindle structures fixed after 45 min, spun onto coverslips; ratios normalised to 1 at 460 nM Eg5-GFP.

Sequence of UniProt P02550 (P02550 whole entry, looked up): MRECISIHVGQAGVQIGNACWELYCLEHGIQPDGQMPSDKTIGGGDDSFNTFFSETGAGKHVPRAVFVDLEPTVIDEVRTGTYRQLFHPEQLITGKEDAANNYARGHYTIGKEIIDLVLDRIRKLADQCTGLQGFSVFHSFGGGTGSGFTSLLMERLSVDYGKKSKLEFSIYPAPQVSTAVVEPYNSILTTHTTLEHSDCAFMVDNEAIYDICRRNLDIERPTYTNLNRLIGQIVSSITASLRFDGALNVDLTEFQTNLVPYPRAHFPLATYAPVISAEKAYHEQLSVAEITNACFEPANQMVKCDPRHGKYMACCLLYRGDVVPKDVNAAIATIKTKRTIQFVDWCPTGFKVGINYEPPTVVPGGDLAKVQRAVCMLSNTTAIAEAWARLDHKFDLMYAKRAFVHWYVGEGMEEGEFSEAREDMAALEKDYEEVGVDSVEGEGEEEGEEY

As to Eg5 1-1067 Eg5T937A-GFP, Cdk1-treated, in assay [1], the “other: mean GFP intensity on microtubules at 15 nM Eg5” value is recorded as “weaker; reference 1226±39”.

B1: Eg5 phosphorylated at threonine 937 by Cdk1/cyclin B in vitro (natural protein)
chain: MSSQNSFMASKKEDKGKNIQVVVRCRPFNQLERKASSHSVLECDSQRKEVYVRTGEVNDKLGKKTYTFDMVFGPAAKQIEVYRSVVCPILDEVIMGYNCTIFAYGQTGTGKTFTMEGERSSDEEFTWEQDPLAGIIPRTLHQIFEKLSENGTEFSVKVSLLEIYNEELFDLLSPSPDVGERLQMFDDPRNKRGVIIKGLEEISVHNKDEVYHILERGAARRKTASTLMNAYSSRSHSVFSVTIHMKETTVDGEELVKIGKLNLVDLAGSENIGRSGAVDKRAREAGNINQSLLTLGRVITALVERTPHIPYRESKLTRILQDSLGGRTKTSIIATVSPASINLEETVSTLDYANRAKSIMNKPEVNQKLTKKALIKEYTEEIERLKRELAAAREKNGVYLSSENYEQLQGKVLSQEEMITEYTEKITAMEEELKSISELFADNKKELEECTTILQCKEKELEETQNHLQESKEQLAQESFVVSAFETTEKKLHGTANKLLSTVRETTRDVSGLHEKLDRKKAVDQHNFQVHENFAEQMDRRFSVIQRTVDDYSVKQQGMLDFYTNSIDDLLGASSSRLSATASAVAKSFASVQETVTKQVSHSVEEILKQETLSSQAKGDLQQLMAAHRTGLEEALRSDLLPVVTAVLDLNSHLSHCLQNFLIVADKIDSHKEDMNSFFTEHSRSLHKLRLDSSSALSSIQSEYESLKEDIATAQSMHSEGVNNLISSLQNQLNLLGMETQQQFSGFLSKGGKLQKSVGSLQQDLDLVSSEAIECISSHHKKLAEQSQDVAVEIRQLAGSNMSTLEESSKQCEKLTSSINTISQESQQWCESAGQKIDSVLEEQVCYLHSSKKHLQNLHKGVEDSCGSSVVEITDRVNAQRQAEEKALTSLVEQVRDDQEMVGEQRLELQEQVQSGLNKVHSYLKEELRNDVPTGTTPQRRDYAYPSLLVKTKPRDVLLEQFRQQQQEYLESISSVISEAVEPPVEQDSLEDEPPVAVNDSVISERSCIDLSMTCQEKGGIRFFQQKKALRKEKENRGNTTLLERSKIMDEVDQALTKSKLPLRMQN
modifications: phosphothreonine at 937 (degree of phosphorylation 87.9% per polypeptide chain)
Take B1: the velocity in microtubule gliding assay (surface-adsorbed motor, 21°C) in assay [2] stood at 1.7 µm/min.

B2: Eg5_(T937A)-GFP (non-phosphorylatable mutant of Xenopus laevis Eg5 with C-terminal GFP) (natural protein)
chain: B1 chain with T937A
As for B2, the fold lower amount bound than wild-type Eg5-GFP, at endogenous concentration in assay [3] was found to be 20 fold.

B3: Eg5 (wild-type full-length Xenopus laevis Eg5), not phosphorylated (natural protein)
chain: B1 chain
Molecule B3 had a velocity in microtubule gliding assay (surface-adsorbed motor, 21°C) in assay [2] of 1.8 µm/min.

B4: Eg5_(T937A) (non-phosphorylatable mutant of full-length Xenopus laevis Eg5) (natural protein)
chain: B1 chain with T937A
Consider B4, for which, in assay [2], the velocity in microtubule gliding assay relative to wild-type Eg5, with or without Cdk1/cyclin B is 88%.
